As a reminder, the Kd is the constant that tells how readily two partners part at equilibrium.

Assay [1] concerns the target GFP-Rac1 fusion (EGFP mutant, 6His construct) bound to GTPγS [GFP: P42212]. In words: FRET in solution at saturating (1 micromolar) Alexa-PBD, GFP-Rac1 loaded with varied GTPγS.
Assay [2] has the same target. Put plainly: FRET titration in solution: 200 nM GFP-Rac1-GTPγS, varied Alexa-PBD, Alexa/GFP emission ratio fit to Y=A*X/(Kd+X).

With “Alexa-PBD (PBD, fragment of human PAK1, residues 65-150, with a single cysteine added in the penultimate N-terminal position, C-terminal 6His fusion, labeled with Alexa 546) (from UniProt Q13153 65-150)”, in assay [1], the fold change of corrected Alexa/GFP emission ratio amounted to 4 fold. Besides, in assay [2], the dissociation constant Kd was determined as 1100 nM.
